Measurements reported in the RNAGym collection of RNA variant scans (doi:10.7554/elife.90254).

B1: OR4K15 (parent)
chain: GUUAACGGUCAUAGGCCAUGGAAACUAGGAGCACCAUUUCGCUGCCAGUGAAGAAAUGAACAAAGAAAAUCUGGGCCAGGCAGGCAUCAAAAGAAAUAGUCUUGCGCUCAACCAGAAAGUCUGUAAUCAUUUUAAGGGUA

Variants of: B1
Experiment: self-cleavage, relative activity (ratio to wild type); higher = more cleavage; in vitro, sequencing; the parent is a self-cleaving ribozyme

| Variant | self-cleavage |
| --- | --- |
| GUUAACGGUCAUAGGCCAUGGUAACUAGGAGCACCAUUUCGCUGCCAGAGAAGAAAUGAACAAAGAAAAUCUGGGCCAGGCAGGCAUCAAAAGAAAUAGUCUUGCGCUCAACCAGAAAGUCUGUAAUCAUUUUAAGGGUA [A22U U49A] | 1.78 |
| GUUAACGGUCAUAGGCCAUGGAAACUAGGAGCACCACUUCGCUGCCAGUGAAGAAAUGAACAAAGAAAAUCUGGGCCAGGCAGGCAUCAAGAGAAAUAGUCUUGCGCUCAACCAGAAAGUCUGUAAUCAUUUUAAGGGUA [U37C A91G] | 1.36 |
| GUUAACGGUCAUAGGCCAUGGGAACUAGGAGCACCAUUUCGCUGCUAGUGAAGAAAUGAACAAAGAAAAUCUGGGCCAGGCAGGCAUCAAAAGAAAUAGUCUUGCGCUCAACCAGAAAGUCUGUAAUCAUUUUAAGGGUA [A22G C46U] | 1.36 |
| GUUAACGGCCAUAGGCCAUGGAAACUAGGAGCACCAUGUCGCUGCCAGUGAAGAAAUGAACAAAGAAAAUCUGGGCCAGGCAGGCAUCAAAAGAAAUAGUCUUGCGCUCAACCAGAAAGUCUGUAAUCAUUUUAAGGGUA [U9C U38G] | 2.11 |
| GUUAACGGUCAUAGGCCAUGGAAACUAGGAGCACCAUUUCGCUGCCACUGAAGAAAUGAACAAAGAAAAUCUGGGCCAGGCAGGCAUCAAAUGAAAUAGUCUUGCGCUCAACCAGAAAGUCUGUAAUCAUUUUAAGGGUA [G48C A92U] | 1.18 |
| GUUAACGGUCAUAGGCCAUGGAAACUAGGAGCACCAUUUCGCUGCCAGUGAAGAAAUGAACAAAGAAAAUCUGGGCCAGGCAGGCAUCAAAAGAAUUAGUCUUGCGCUCAACCAGAAAGUCCGUAAUCAUUUUAAGGGUA [A96U U122C] | 1.54 |
| GUUAACGGUCAUAGGCCAUGGAAACUAGGAGCACCACUUCGCUGCCAGUGAAGAAAUGAACAAAGAAAAUCUGGGCCAGGCAGGCAUCAAAAGAAAUAGUAUUGCGCUCAACCAGAAAGUCUGUAAUCAUUUUAAGGGUA [U37C C101A] | 0.22 |
| GUUAACGGUCAUAGGCCAUGGAAACUAGGAGCACCAUUUCGCUGCCAGUGAAGAAAUGAACAAAGAAGAUCUGGGCCAGGCAGGCAUCAAAAGAAAUAGUCUUGCGCACAACCAGAAAGUCUGUAAUCAUUUUAAGGGUA [A68G U108A] | 0.04 |
| GUUAACGGUCAUAGGCCAUGGAAACUAGGAGCACCAUUUCGCUGCCAGUGAAGAAAUGAACAAAGAAAAUCUGGUCCAGGCAGGCAUCAAAAGAAAUAGUCUUGCGCUCAACCAGAAAGUCUGUAAUCAUUUUAAGGGUA [G75U] | 0.12 |
| GUUAACGGUCAUAGGCCAUGGAAGCUAGGAGCACCAUUUCGCUGCCAGUGAAGAGAUGAACAAAGAAAAUCUGGGCCAGGCAGGCAUCAAAAGAAAUAGUCUUGCGCUCAACCAGAAAGUCUGUAAUCAUUUUAAGGGUA [A24G A55G] | 0.67 |
| GUAAACGGUCAUAGGCCAUGGAAACUAGGAGCACCAUUUCGCUGCCAGUGAAGAAAUGAACAAAGAAAAUCUGGGCCAGGCAGGCAUCAAAAGAAAUAGUCUUGCGCUCAACCAGAAGGUCUGUAAUCAUUUUAAGGGUA [U3A A118G] | 0.9 |
| GUUAACGGUCAUAGGCCAUGGAAACUAGGAGCACCAUUUCGCUGCCAGUGAAGAAAUGAACAAAGAAAGUCUGGGCCAGGCAGGCAUCAAAGGAAAUAGUCUUGCGCUCAACCAGAAAGUCUGUAAUCAUUUUAAGGGUA [A69G A92G] | 0.72 |
| GUUAACGGUCAUAGGCCAUGGAAACUAGGAGCACCAUUUCGCUGCCAGUGAAGAAAUGAACAGAGAAAAUCUGGGCCAAGCAGGCAUCAAAAGAAAUAGUCUUGCGCUCAACCAGAAAGUCUGUAAUCAUUUUAAGGGUA [A63G G79A] | 0.11 |
| GUUAACGGUCAUAGGCCAUGGAAACUAGGAGCACCAUUUCGCUGCCAGUGAAGAAAUGAACAAAGAAAAUCUGGGCCAGGCAGGCAUCAAAAGAAAGAGUCUUGCGCUCAACCAGAAAGUCUGUAAUCAUUCUAAGGGUA [U97G U132C] | 1.54 |
| GUUAACGGUCAUAGGCCAUGGAAACUAGGAGCACCAUUUCGCUGCCAGUGAAGAAAUGAACAAAGAAAAUCUGGGCCAGGCAGGCAUCAAAAGGAAAAGUCUUGCGCUCAACCAGAAAGUCUGUAAUCAUUUUAAGGGUA [A94G U97A] | 2.02 |
| GUUAACGGUCGUAGGCCAUGGAAACUAGGAGCACCAUUUCGCUGCCAGUGAAGAAAUGAACAAAGAAAAUCUGGGCCAGGCAGGCUUCAAAAGAAAUAGUCUUGCGCUCAACCAGAAAGUCUGUAAUCAUUUUAAGGGUA [A11G A86U] | 1.82 |
| GUUAACGGUCAUAGGCCAUGGAAACUAGGUGCACCAUUUCGCUGCCAGUGAAGAAAUGAACAAAGAAAAUCUGGGCCAGGCAGGCAUCAAAAGAAAUAGUCUUGCGCUCAACCAGGAAGUCUGUAAUCAUUUUAAGGGUA [A30U A116G] | 1.27 |
| GUUAACGGUCAUAGGCCAUGGAAACUAGGAGCACUAUAUCGCUGCCAGUGAAGAAAUGAACAAAGAAAAUCUGGGCCAGGCAGGCAUCAAAAGAAAUAGUCUUGCGCUCAACCAGAAAGUCUGUAAUCAUUUUAAGGGUA [C35U U38A] | 0.41 |
| GUUAACGGUCAUAGGCCAUGGAAACUAGGAGCACCGUUUCGCUGCCAGUGAAGAAAUGAACAAAGAAAAUCUGGGCCAGGCAGGCAUCAAAAGAAAUAGUCUUGCGCUCGACCAGAAAGUCUGUAAUCAUUUUAAGGGUA [A36G A110G] | 0.07 |
| GUUAACGGUCAUAGGCCAUGGAAACUAGGAGCACCAUUUCGCUGCCAGUGAAGAAAUGAACAAAGAAAAUCUGGGCCAGGCAGGCAUCAAAAGAAAUAGUCUUGCGCACAACCAGAAAGUCUGUAAUCAUUUUAAGGGUA [U108A] | 0.02 |
| GUUAACGGUCAUAGGCCAUGGAAACUAGGAGCACCAUUUCGCUGCCAGUGAAGAAAUGAACAAAGAAAAUCUGGGCCAGGCAGGCAUCAAAAGAAAUAGUCUUGCGCUCAACCAGAAAGUCGGUAAUCAUUUUAAGGGUA [U122G] | 2.57 |

| Variant | self-cleavage |
| --- | --- |
| GUUAACGGUCAUAGGCCAUGGAAACUAGGAGCACCAUUUCGCUGCCAGUGAAGAAAUGAACAAAGAAAAUCUGGGCCAGGCAGGCAUCAAAAGAAAUAGUCUUGCGCUCUACUAGAAAGUCUGUAAUCAUUUUAAGGGUA [A110U C113U] | 0.02 |
| GUUAACGGUCAUAGGCCAUGGAAACUAGGAGCACCAUUUCGCUGCCAGUGAAGAAAUGAACAAAGAGAAUCUGGGCCAGGCAGGCAUCAAAAGAAAUAGUCUUGCGCUCAACCAGAAAGUCUGUAAUCAUUUUAAGGGAA [A67G U139A] | 1.87 |
| GUUAACGGUCGUAGGCCAUGGAAACUAGGAGCACCGUUUCGCUGCCAGUGAAGAAAUGAACAAAGAAAAUCUGGGCCAGGCAGGCAUCAAAAGAAAUAGUCUUGCGCUCAACCAGAAAGUCUGUAAUCAUUUUAAGGGUA [A11G A36G] | 0.8 |
| GUUAACGGUCAUAGGGCAUGGAAACUAGGAGCACCAUUUCGCUGCCAGUGAAGAAAUGAACAAAGAAAAUCUGGGCCAGGCAGGCAUCAAAAGAAAUAGUCUUGCGCUCAACCAGAAAGUCUGUAAUCAUUUUAGGGGUA [C16G A135G] | 0.74 |
| GUUAACGGUCAUAGGCCAUGGAUACUAGGAGCACCAUUUCGCUGCCAGUGAAGAAAUGAACAAAGAAAAUCUGGGCCAGGCAGGCAUCAAAAGAAAUAGUCUUGCGCUCAACCAGAAAGUCUGUAAUCAUUUUAAGAGUA [A23U G137A] | 1.46 |
| GUUAACGGUCAUAGGCCAUGGAAACUAGGAGCACCAUUUCGCUGCCAGUGAAGAAAUGAACUAAGAAAAUCUGGGCCAGGCAGGCAUCAAAGGAAAUAGUCUUGCGCUCAACCAGAAAGUCUGUAAUCAUUUUAAGGGUA [A62U A92G] | 1.34 |
| GUUAACGGUCAUAGGCCAUGGAAACUAGGAGCACCAUUUCGCUGCCAGUGAAGAAAUGAACAAAGAAAAUCUGGGCCAGGCAGGCGUCCAAAGAAAUAGUCUUGCGCUCAACCAGAAAGUCUGUAAUCAUUUUAAGGGUA [A86G A89C] | 0.67 |
| GUUAACGGUCAUAGGCCAUGGAAACUAGGAUCACCAUUUCGCUGCCGGUGAAGAAAUGAACAAAGAAAAUCUGGGCCAGGCAGGCAUCAAAAGAAAUAGUCUUGCGCUCAACCAGAAAGUCUGUAAUCAUUUUAAGGGUA [G31U A47G] | 1.05 |
| GUUAACGGUCAUAGGCCAUGGAAACUAGGAGCGCCAUUUCGCUGCCAGUGAAGAAAUGAACAAAGAAAAUCUGGGCCAGGCAGGCAUCAAAAGAAAUAGUCUUGCGCUCAGCCAGAAAGUCUGUAAUCAUUUUAAGGGUA [A33G A111G] | 0.02 |
| GUUAACGGUCAUAGGCCAUGGAAACUAGGAGCACCAUUUCGCUGCCAGUGAAGAAAUGAACAAAGAAAAUCUGGGCCAGGCAGGCAUCAAAAGAAAUAGUCUUGCGCUCAACCAGAAAGUCUGUGAUCAUUUUAUGGGUA [A125G A135U] | 0.54 |
| GUUAACGGUCAUAGGCCAUGGAAACUAGGAGCACCAUUUCGCUGCCAGUGAAGAAAUGAACAAAGAAAACCUGGGCCAGGCAGGCAUCAAAAGAAAUAGUCUUGCGCUCAACCAGAAAGUCUGUAAUCAAUUUAAGGGUA [U70C U130A] | 0.19 |
| GUUAACGGUCAUAGGCCAUGGAAACUAGGAGCACCAUUUCGCUGCCAGUGAAGAAAUGAACACAGAAAAUCUGGGCCAGGCAGGCAUCAGAAGAAAUAGUCUUGCGCUCAACCAGAAAGUCUGUAAUCAUUUUAAGGGUA [A63C A90G] | 1.79 |
| GUUAAUGGUCAUAGGCCAUGGAAACUAGGAGCACCAUUUCGCUGCCUGUGAAGAAAUGAACAAAGAAAAUCUGGGCCAGGCAGGCAUCAAAAGAAAUAGUCUUGCGCUCAACCAGAAAGUCUGUAAUCAUUUUAAGGGUA [C6U A47U] | 0.51 |
| GUUAACGGUCAUAGGCCAUGGAAACUAGGAGCACCAUUUCGCUGCCAGUGAAGAAAUGAACAAAGAAAAUCUGGGCCAGGCAGGCGUCAAAAGAAAUAGUCUUGCGCUCGACCAGAAAGUCUGUAAUCAUUUUAAGGGUA [A86G A110G] | 0.16 |
| GUUAACGGUCAUAGGCCAUGGAAACUAGGAGCACCAUUUCGCUGCCAGUGAAGAAAUGAACAAAGAAAAUCUGGGCCAGGCAGGCAUCAAAAGAAAUAGUCUUGCGCUCAACCAGAAAGUCUGUGAUCAUUAUAAGGGUA [A125G U132A] | 0.32 |
| GUUAACGGUCAUAGGCCAUGGAAACUAGGAGCACCAUUUCGCUGCCAGUGAAGAAAUGAACGAAGAAAAUCUGGCCCAGGCAGGCAUCAAAAGAAAUAGUCUUGCGCUCAACCAGAAAGUCUGUAAUCAUUUUAAGGGUA [A62G G75C] | 0.18 |
| GUUAACGGUCAUAGGCCAUGGAAACUAGGAGCACCAUUUCGCUGCCAGUGAAGAAAUGAACAAAGAAAAUCUGGGCCUGGCAGGCAUCAAAAGAAAUAGUCUUGCGCUCAACCAGAAAGUCUGUAAUCAUUUUAAGGGAA [A78U U139A] | 0.5 |
| GUUAACGGUCAUAGGCCAUGGAAACUAGGAGCACCAUUUCGCUGCCAGUGAAGAAAUGAACAAAGAAAAUCUGGGCCAGGCAGGCAUCAAAAGAAAUAGUCUUGCGCUCAACCAGUAAGUCCGUAAUCAUUUUAAGGGUA [A116U U122C] | 0.21 |
| GUUAACGGUCAUAGGCCAUGGAAACUAGGAGCACCAUUUCGCUGCCAGUGAAGAAAUGAACAAAGAAAAUCUGGGCCAGGCAGGCAUCAAAAGAAAUAGUCUUGCGCACAACCAGAAAGUCUGUAAUCACUUUAAGGGUA [U108A U130C] | 0.01 |
| GUUAACGGUCAUAGGCCAUGGAAACUAGGAGCACCAUUUCGCUGCCAGUGAAGAAAUGAACAAAGAAAAUCUGGGCCUGGCAGGCAUCAAAAGAAAUAGUCUUGCGCUCAACCAGAAAGUCUGUAAUCACUUUAAGGGUA [A78U U130C] | 0.2 |
